Test results from doi:10.1101/521658v1.

Key:
[1] = substrate: Nc1ncnc2c1ncn2[C@@H]1O[C@H](COP(=O)(O)OP(=O)(O)OP(=O)(O)O)[C@@H](O)[C@H]1O; experiment: purified protein, by the assay type; settings: pH 7.8
[2] = substrate: NC(=O)c1ccc[n+]([C@@H]2O[C@H](COP(=O)(O)OP(=O)(O)OC[C@H]3O[C@@H](n4cnc5c(N)ncnc54)[C@H](O)[C@@H]3O)[C@@H](O)[C@H]2O)c1; experiment: purified protein, by the assay type; settings: pH 7.8

B1: 6HIS-Δ38NADKc-1 (with AtCaM1/Ca^2+) (Arabidopsis thaliana) (protein)
chain: AGELLLRRRKLDQGASMGYKDVKIAPLIERKDSGRRSNLERFSHYVARQLGFEDPNEYPQLCKLANGYLLKTKGYDENVDEYLENEAERDSLYVHLLEEFDRCILTYFSFNWTQSSNLISQALSDESDQKVPKLKDFVMAATRKQRFERVTKDLKVKRVISTLVEEMRVIGSGSSEPHCTEVMSPVAHNKRSPVLLLMGGGMGAGKSTVLKDIFLESFWSEAQADAVVIEADAFKETDVIYRALSSRGHHDDMLQTAELVHQSSTDAASSLLVTALNDGRDVIMDGTLSWEPFVEQMIEMARNVHKQKYRMGEGYKVSEEGTITEKYWEEEEEETKENGKQQNLKPYRIELVGVVCDAYLAVARGIRRALMVKRAVRVKPQLNSHKRFANAFPKYCELVDNARLYCTNAVGGPPRLIAWKDGNSKLLVDPEDIDCLKRVSSLNPDAESIYELYPDPSQLSKPGSVWNDVVLVPSRPKVQKELSDAIRRIEKAQPKN
[1]
  Km: 203(±30) uM
  kcat: 41 ± 2 s⁻¹
  kcat/Km: 200000 M⁻¹ s⁻¹
[2]
  Km: 147 (±17) uM
  kcat: 42 ± 2 s⁻¹
  kcat/Km: 280000 M⁻¹ s⁻¹
